Results published in patent US20250262210A1 (TRUSTEES OF COLUMBIA UNIVERSITY IN THE CITY OF NEW YORK, published 2025).

Experiments:
Experiment in all cases: IP/MS, LZTR1 wild type-FLAG, U87
[1] = target: T1, RANBP6 (human, UniProt O60518 2-1105)
T1 sequence (looked up): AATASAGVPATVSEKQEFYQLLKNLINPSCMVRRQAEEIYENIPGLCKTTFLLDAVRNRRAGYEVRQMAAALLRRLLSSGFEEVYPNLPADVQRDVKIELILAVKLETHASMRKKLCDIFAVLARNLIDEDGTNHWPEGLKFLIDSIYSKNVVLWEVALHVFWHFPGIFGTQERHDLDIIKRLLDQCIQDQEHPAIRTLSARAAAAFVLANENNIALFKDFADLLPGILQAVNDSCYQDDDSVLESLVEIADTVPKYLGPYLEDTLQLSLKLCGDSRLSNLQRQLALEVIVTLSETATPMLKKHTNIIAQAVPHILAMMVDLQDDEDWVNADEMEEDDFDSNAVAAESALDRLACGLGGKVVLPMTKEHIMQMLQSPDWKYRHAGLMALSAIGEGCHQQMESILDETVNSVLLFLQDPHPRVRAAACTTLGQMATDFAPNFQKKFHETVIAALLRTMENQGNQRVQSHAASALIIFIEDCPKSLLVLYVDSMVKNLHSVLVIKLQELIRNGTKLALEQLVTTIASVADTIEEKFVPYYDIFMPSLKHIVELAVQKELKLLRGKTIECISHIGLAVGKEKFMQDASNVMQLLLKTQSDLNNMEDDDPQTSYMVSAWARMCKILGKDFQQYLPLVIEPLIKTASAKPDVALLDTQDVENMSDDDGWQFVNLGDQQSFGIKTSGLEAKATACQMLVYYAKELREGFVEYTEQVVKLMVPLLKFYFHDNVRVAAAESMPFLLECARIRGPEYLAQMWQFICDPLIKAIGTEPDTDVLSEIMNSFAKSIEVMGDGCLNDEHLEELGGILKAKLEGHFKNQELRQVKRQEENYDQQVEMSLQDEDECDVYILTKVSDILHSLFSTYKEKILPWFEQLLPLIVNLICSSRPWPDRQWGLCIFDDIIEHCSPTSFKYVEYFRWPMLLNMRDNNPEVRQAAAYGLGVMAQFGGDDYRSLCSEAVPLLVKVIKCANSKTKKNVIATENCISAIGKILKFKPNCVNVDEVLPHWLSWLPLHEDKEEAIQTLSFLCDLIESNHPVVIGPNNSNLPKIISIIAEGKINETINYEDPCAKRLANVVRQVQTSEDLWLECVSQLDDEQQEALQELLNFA
In short: (§1)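 Extracted peptides in 3% acetonitrile/0.1% formic acid ran on a 50 cm C18 column into an Orbitrap Fusion, with MaxQuant identification and spectral counting.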

[2] = target: CDK5RAP2 (human, UniProt Q96SN8 1-1893, limits assumed)
In short: as §1

[3] = target: T2, EMC1 (human, UniProt Q8N766 23-993, limits assumed)
T2 sequence (looked up): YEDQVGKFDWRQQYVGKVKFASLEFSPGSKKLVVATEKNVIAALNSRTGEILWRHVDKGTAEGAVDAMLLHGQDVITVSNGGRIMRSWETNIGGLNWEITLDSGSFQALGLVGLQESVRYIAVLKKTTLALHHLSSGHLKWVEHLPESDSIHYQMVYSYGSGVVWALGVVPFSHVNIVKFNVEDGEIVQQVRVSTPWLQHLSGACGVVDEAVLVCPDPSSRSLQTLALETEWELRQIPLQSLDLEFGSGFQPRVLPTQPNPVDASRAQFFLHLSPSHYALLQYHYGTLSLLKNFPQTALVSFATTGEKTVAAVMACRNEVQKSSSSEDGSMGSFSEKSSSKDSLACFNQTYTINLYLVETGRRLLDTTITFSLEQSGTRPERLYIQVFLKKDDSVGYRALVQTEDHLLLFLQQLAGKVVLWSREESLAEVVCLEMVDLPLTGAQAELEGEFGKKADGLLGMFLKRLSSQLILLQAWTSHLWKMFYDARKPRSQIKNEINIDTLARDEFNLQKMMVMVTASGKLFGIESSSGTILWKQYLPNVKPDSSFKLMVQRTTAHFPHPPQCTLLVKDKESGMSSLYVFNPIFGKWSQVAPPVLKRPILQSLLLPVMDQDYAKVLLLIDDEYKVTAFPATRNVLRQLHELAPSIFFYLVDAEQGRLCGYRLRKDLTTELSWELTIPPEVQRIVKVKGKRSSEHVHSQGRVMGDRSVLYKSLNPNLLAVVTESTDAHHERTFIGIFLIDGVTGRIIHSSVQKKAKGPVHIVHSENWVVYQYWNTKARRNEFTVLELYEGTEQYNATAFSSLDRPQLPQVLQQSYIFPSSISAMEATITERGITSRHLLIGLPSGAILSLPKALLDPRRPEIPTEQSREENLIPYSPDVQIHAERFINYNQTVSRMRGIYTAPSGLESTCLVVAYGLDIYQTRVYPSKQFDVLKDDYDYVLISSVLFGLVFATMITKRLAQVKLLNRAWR
In short: as §1

CDK5RAP2, sequence (Q96SN8 whole entry): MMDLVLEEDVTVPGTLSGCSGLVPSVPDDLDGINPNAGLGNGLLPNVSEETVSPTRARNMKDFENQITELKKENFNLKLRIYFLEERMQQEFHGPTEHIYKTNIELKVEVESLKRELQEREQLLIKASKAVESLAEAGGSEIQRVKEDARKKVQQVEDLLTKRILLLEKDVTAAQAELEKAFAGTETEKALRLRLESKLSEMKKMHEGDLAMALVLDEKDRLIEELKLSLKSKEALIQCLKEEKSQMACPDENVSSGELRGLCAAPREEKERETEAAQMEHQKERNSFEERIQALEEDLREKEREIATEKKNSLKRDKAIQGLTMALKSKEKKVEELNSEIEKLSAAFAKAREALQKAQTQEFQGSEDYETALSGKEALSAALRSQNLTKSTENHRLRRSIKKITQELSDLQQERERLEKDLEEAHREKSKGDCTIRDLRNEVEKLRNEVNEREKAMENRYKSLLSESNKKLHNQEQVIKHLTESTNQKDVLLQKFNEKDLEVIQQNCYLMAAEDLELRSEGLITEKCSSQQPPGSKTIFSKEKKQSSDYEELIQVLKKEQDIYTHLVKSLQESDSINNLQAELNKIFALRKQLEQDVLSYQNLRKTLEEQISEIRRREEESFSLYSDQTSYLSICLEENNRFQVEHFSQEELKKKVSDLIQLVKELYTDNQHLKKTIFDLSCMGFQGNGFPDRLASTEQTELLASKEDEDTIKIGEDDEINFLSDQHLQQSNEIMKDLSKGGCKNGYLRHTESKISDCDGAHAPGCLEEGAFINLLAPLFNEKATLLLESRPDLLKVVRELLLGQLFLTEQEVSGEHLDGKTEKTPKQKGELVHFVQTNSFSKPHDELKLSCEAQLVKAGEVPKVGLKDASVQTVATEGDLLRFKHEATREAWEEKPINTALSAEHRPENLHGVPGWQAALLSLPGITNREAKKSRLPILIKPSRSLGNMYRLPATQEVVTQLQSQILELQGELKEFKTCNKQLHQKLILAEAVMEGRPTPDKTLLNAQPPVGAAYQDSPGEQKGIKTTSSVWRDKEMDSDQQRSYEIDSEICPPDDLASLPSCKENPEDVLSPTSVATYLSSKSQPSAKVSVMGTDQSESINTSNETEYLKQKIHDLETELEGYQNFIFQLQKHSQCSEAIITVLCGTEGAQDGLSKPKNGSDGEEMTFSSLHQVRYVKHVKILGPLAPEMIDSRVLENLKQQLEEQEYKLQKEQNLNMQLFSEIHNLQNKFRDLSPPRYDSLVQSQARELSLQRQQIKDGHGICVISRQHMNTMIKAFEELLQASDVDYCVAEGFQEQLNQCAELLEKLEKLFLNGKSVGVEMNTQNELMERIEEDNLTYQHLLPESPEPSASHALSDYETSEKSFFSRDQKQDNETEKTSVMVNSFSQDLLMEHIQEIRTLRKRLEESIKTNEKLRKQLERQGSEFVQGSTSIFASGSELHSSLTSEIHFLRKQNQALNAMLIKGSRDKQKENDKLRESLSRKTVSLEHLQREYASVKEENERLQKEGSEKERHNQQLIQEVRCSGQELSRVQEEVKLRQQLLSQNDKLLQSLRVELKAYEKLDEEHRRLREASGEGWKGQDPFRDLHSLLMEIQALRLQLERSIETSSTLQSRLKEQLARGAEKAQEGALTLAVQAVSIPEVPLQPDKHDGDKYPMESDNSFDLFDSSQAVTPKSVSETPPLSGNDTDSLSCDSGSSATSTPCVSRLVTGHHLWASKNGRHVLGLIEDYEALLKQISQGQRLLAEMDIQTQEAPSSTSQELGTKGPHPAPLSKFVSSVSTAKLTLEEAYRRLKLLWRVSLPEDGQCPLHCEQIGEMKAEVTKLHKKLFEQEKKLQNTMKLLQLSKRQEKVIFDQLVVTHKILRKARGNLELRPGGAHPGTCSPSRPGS

- binding result [1]: binds
- binding result [2]: binds
- binding result [3]: binds
B1: LZTR1-FLAG (other, human, UniProt Q8N653 1-840, looked up)
chain: MAGPGSTGGQIGAAALAGGARSKVAPSVDFDHSCSDSVEYLTLNFGPFETVHRWRRLPPCDEFVGARRSKHTVVAYKDAIYVFGGDNGKTMLNDLLRFDVKDCSWCRAFTTGTPPAPRYHHSAVVYGSSMFVFGGYTGDIYSNSNLKNKNDLFEYKFATGQWTEWKIEGRLPVARSAHGATVYSDKLWIFAGYDGNARLNDMWTIGLQDRELTCWEEVAQSGEIPPSCCNFPVAVCRDKMFVFSGQSGAKITNNLFQFEFKDKTWTRIPTEHLLRGSPPPPQRRYGHTMVAFDRHLYVFGGAADNTLPNELHCYDVDFQTWEVVQPSSDSEVGGAEVPERACASEEVPTLTYEERVGFKKSRDVFGLDFGTTSAKQPTQPASELPSGRLFHAAAVISDAMYIFGGTVDNNIRSGEMYRFQFSCYPKCTLHEDYGRLWESRQFCDVEFVLGEKEECVQGHVAIVTARSRWLRRKITQARERLAQKLEQEAAPVPREAPGVAAGGARPPLLHVAIREAEARPFEVLMQFLYTDKIKYPRKGHVEDVLLIMDVYKLALSFQLCRLEQLCRQYIEASVDLQNVLVVCESAARLQLSQLKEHCLNFVVKESHFNQVIMMKEFERLSSPLIVEIVRRKQQPPPRTPLDQPVDIGTSLIQDMKAYLEGAGAEFCDITLLLDGHPRPAHKAILAARSSYFEAMFRSFMPEDGQVNISIGEMVPSRQAFESMLRYIYYGEVNMPPEDSLYLFAAPYYYGFYNNRLQAYCKQNLEMNVTVQNVLQILEAADKTQALDMKRHCLHIIVHQFTKVSKLPTLRSLSQQLLLDIIDSLASHISDKQCAELGADI
notes: Expressed in HEK 293T, HeLa or U87 cells; used as cell lysate; also called LZTR1 wild type-FLAG; LZTR1 WT; not shown: FLAG tag at the C-terminus
